# The supplement of paper PMC10899765
# Test system: MCF10A
# Experiment: one-nucleolus phenotype percent effect (relative to siNT 0% and siNOL11 100%); higher = more cells with one nucleolus (ribosome biogenesis inhibition)
# Details: 20 nM; 72 h
# Procedure: (§1)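 After 72 h, cells were fixed and stained with Hoechst and anti-fibrillarin, and nucleoli per nucleus were counted with CellProfiler. Values are plate-adjusted percent effect for the one-nucleolus and 5+ nucleoli phenotypes, normalised to siNT (0%) and to the positive controls siNOL11 or siKIF11 (100%), as the mean of biological triplicates. Percent viability is the nuclei count relative to siNT.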
row,Sequence,one-nucleolus phenotype percent effect [%]
1,AAAAGUAAUUGCGGAUUUUGCC [hsa-miR-548i],-17.1
2,AGCCCCUGCCCACCGCACACUG [hsa-miR-210-5p],-21
3,CACAUGGCCGAAACAGAGAAGU [hsa-miR-942-3p],-19.9
4,UCUGCCAUAGGAAGCUUGGAGUGG [hsa-miR-6817-5p],-25
5,UCUGAAAGAGCAGUUGGUGUU [hsa-miR-4766-5p],-18.9
6,AAGGCAGGGCCCCCGCUCCCC [hsa-miR-940],45.5
7,AGGGUGGGGCUGGAGGUGGGGCU [hsa-miR-6756-5p],3.98
8,UGGCCGGAUGGGACAGGAGGCAU [hsa-miR-4743-5p],20.6
9,AUCCUCUCUUCCCUCCUCCCAG [hsa-miR-7111-3p],3.35
10,UCUAGAGGAAGCACUUUCUGUUU [hsa-miR-520g-5p],-24.2
11,ACUGUCACUUCUCUGCCCAUAG [hsa-miR-6773-3p],13.5
12,UUGCAUGUCAGAUUGUAAUUCCC [hsa-miR-4666b],5.21
13,AGUGGACCGAGGAAGGAAGGA [hsa-miR-4800-5p],2.75
14,GGUGGAUAUUCCUUCUAUGUU [hsa-miR-376c-5p],21.9
15,AAUGGCGCCACUAGGGUUGUG [hsa-miR-652-3p],7.39
16,CUCGGCCGCGGCGCGUAGCCCCCGCC [hsa-miR-4665-3p],-15.1
17,AGCAGAGGCAGAGAGGCUCAGG [hsa-miR-2467-3p],26.3
18,UCCGUCUCAGUUACUUUAUAGC [hsa-miR-340-3p],1.48
19,UGGAGAGAGAAAAGAGACAGAAG [hsa-miR-4644],-24.6
20,AUGGGUGAUGGGUGUGGUGU [hsa-miR-4701-3p],47.1
21,GGCUCCUUGGUCUAGGGGUA [hsa-miR-4448],-9.36
22,CUCCUCCCCUGCCUGGCCCAG [hsa-miR-6749-3p],-2.87
23,UAUAAAAUGAGGGCAGUAAGAC [hsa-miR-3163],-19.2
24,UGUCGUGGGGCUUGCUGGCUUG [hsa-miR-4440],2.65
25,UAAAGUGGCAGAGUAUAGACAC [hsa-miR-4796-3p],-1.57
26,UGGUGGGCACAGAAUCUGGACU [hsa-miR-541-3p],17.6
27,UGUGCGCAGGGAGACCUCUCCC [hsa-miR-933],4.65
28,CUAGGUAUGGUCCCAGGGAUCC [hsa-miR-331-5p],-17.6
29,UUCACAGUGGCUAAGUUCUGC [hsa-miR-27b-3p],-13.3
30,AGGAGGCAGCGCUCUCAGGAC [hsa-miR-650],23.2

# Test system: MCF10A
# Experiment: percent viability (nuclei count relative to siNT); higher = more viable cells
# Details: 20 nM; 72 h
# Procedure: as §1
row,Sequence,percent viability [%]
1,UGAUCAGGCAAAAUUGCAGACU [hsa-miR-4772-5p],17
2,CGCCUGCCCAGCCCUCCUGCU [hsa-miR-4763-5p],38.1
3,UUCAACGGGUAUUUAUUGAGCA [hsa-miR-95],69.8
4,GCAUGUGAUGAAGCAAAUCAGU [hsa-miR-3607-5p],52.8
5,AAUUUACUCUGCAAUCUUCUCC [hsa-miR-4699-3p],87.9
6,CGCAGACAAUGCCUACUGGCCUA [hsa-miR-3166],21.3
7,UUAGUGCAUAGUCUUUGGUCU [hsa-miR-4671-3p],85.2
8,GGGGCCUGGCGGUGGGCGG [hsa-miR-2861],80.1
9,AUCAUACAAGGACAAUUUCUUU [hsa-miR-539-3p],39.4
10,AGGGACUGCCUUAGGAGAAAGUU [hsa-miR-3199],57.4
11,CCUGUUGAAGUGUAAUCCCCA [hsa-miR-1267],114
12,AUAGCAAUUGCUCUUUUGGAA [hsa-miR-4766-3p],38.1
13,UACUGCAGACAGUGGCAAUCA [hsa-miR-509-5p],48.8
14,ACCCCCGGGCAAAGACCUGCAGAU [hsa-miR-6840-5p],92
15,ACUUGUAUGCUAGCUCAGGUAG [hsa-miR-643],165
16,UGAGAUGAAGCACUGUAGCUC [hsa-miR-143-3p],47.9
17,UGAGGAUAUGGCAGGGAAGGGGA [hsa-miR-3679-5p],100
18,UUGCAGCUGCCUGGGAGUGACUUC [hsa-miR-1301],49
19,AACAAUAUCCUGGUGCUGAGUG [hsa-miR-338-5p],47.6
20,CUGCGCAAGCUACUGCCUUGCU [hsa-let-7i-3p],110

row,Sequence,percent viability [%]
1,UUCCUUCUGUUGUCUGUGCAG [hsa-miR-6868-3p],28.1
2,CGGGUGGGAGCAGAUCUUAUUGAG [hsa-miR-6766-5p],76.6
3,UCAACAAAAUCACUGAUGCUGGA [hsa-miR-3065-5p],117
4,UGUGCAAAUCUAUGCAAAACUGA [hsa-miR-19a-3p],141
5,CGACCUCGGCGACCCCUCACU [hsa-miR-6790-3p],45.6
6,AGGGAGGGUGUGGUAUGGAUGU [hsa-miR-6883-5p],42
7,CUGCAAUGUAAGCACUUCUUAC [hsa-miR-106a-3p],72.6
8,AAGCAGCAGUGGCAAGACUCCU [hsa-miR-6838-5p],24.7
9,AAGAGGAAGAAAUGGCUGGUUCUCAG [hsa-miR-3916],14
10,AAAAGUAAUUGCGGAUUUUGCC [hsa-miR-548i],140
11,AGCCCCUGCCCACCGCACACUG [hsa-miR-210-5p],101
12,CACAUGGCCGAAACAGAGAAGU [hsa-miR-942-3p],32.7
13,UCUGCCAUAGGAAGCUUGGAGUGG [hsa-miR-6817-5p],65.4
14,UCUGAAAGAGCAGUUGGUGUU [hsa-miR-4766-5p],56.2
15,AAGGCAGGGCCCCCGCUCCCC [hsa-miR-940],12.8
16,AGGGUGGGGCUGGAGGUGGGGCU [hsa-miR-6756-5p],42
17,UGGCCGGAUGGGACAGGAGGCAU [hsa-miR-4743-5p],25.6
18,AUCCUCUCUUCCCUCCUCCCAG [hsa-miR-7111-3p],47.3
19,UCUAGAGGAAGCACUUUCUGUUU [hsa-miR-520g-5p],67.5
20,ACUGUCACUUCUCUGCCCAUAG [hsa-miR-6773-3p],47.1

row,Sequence,percent viability [%]
1,UUGCAUGUCAGAUUGUAAUUCCC [hsa-miR-4666b],64.4
2,AGUGGACCGAGGAAGGAAGGA [hsa-miR-4800-5p],44.8
3,GGUGGAUAUUCCUUCUAUGUU [hsa-miR-376c-5p],20.7
4,AAUGGCGCCACUAGGGUUGUG [hsa-miR-652-3p],58.1
5,CUCGGCCGCGGCGCGUAGCCCCCGCC [hsa-miR-4665-3p],75.2
6,AGCAGAGGCAGAGAGGCUCAGG [hsa-miR-2467-3p],4.65
7,UCCGUCUCAGUUACUUUAUAGC [hsa-miR-340-3p],74
8,UGGAGAGAGAAAAGAGACAGAAG [hsa-miR-4644],74.5
9,AUGGGUGAUGGGUGUGGUGU [hsa-miR-4701-3p],13.3
10,GGCUCCUUGGUCUAGGGGUA [hsa-miR-4448],45.2
11,CUCCUCCCCUGCCUGGCCCAG [hsa-miR-6749-3p],48.8
12,UAUAAAAUGAGGGCAGUAAGAC [hsa-miR-3163],53
13,UGUCGUGGGGCUUGCUGGCUUG [hsa-miR-4440],58.9
14,UAAAGUGGCAGAGUAUAGACAC [hsa-miR-4796-3p],75.7
15,UGGUGGGCACAGAAUCUGGACU [hsa-miR-541-3p],24.6
16,UGUGCGCAGGGAGACCUCUCCC [hsa-miR-933],78.3
17,CUAGGUAUGGUCCCAGGGAUCC [hsa-miR-331-5p],111
18,UUCACAGUGGCUAAGUUCUGC [hsa-miR-27b-3p],128
19,AGGAGGCAGCGCUCUCAGGAC [hsa-miR-650],33.8
